Our source for the Kd values is publication PMC3547035, “Investigating the Antiproliferative Activity of High Affinity DNA Aptamer on Cancer Cells”.

What is called Kd is the concentration at which binding is half-saturated.

In one series the target is VEGF121 (Homo sapiens, UniProt P15692-9 27-147). Put plainly: SPR; SPR BIAcore 2000, CM5 chip, immobilized protein ~200 RU, PBS + Tween-20 running buffer (pH not stated), 25 C, aptamer 0.2-100 nM, 1:1 Langmuir fit. Particulars: protein: recombinant; tags: carrier free; chain copies: 2; hairpin (CD). For orientation: SPR reads the build-up and loss of mass on a sensor chip optically.

For the next series, the target named is VEGF165 (Homo sapiens, UniProt P15692-4 27-191). Described as above. The settings on record: protein: recombinant; tags: carrier free; chain copies: 2; hairpin (CD).
Chain of VEGF165 (P15692 other isoform, or with tags, fused parts or gaps): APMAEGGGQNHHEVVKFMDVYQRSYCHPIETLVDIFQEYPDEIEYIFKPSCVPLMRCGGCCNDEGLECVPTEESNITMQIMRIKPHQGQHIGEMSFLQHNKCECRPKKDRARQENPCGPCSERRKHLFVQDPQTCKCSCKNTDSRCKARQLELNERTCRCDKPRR

Chain of VEGF121 (P15692 other isoform, or with tags, fused parts or gaps): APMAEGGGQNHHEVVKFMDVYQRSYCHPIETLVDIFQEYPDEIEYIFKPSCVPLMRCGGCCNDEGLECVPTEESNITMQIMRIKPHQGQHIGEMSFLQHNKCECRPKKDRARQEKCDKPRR

With CAATTGGGCCCGTCCGTATGGTGGGT (XNA, phosphorothioate linkages C1*A2 and G25*T26) [PS-modified SL2-B], the results for the Kd with VEGF121 and in the series with VEGF165 were 17 ± 1.24 µM and 0.00056 ± 0.00044 µM, respectively.
